Drawing on patent US20260274928A1, this text covers IC50, authentic virus neutralization and median IC50, authentic virus neutralization for one molecule.

The target in the assay is 9-strain panel of authentic SARS-CoV-2 viral isolates. Briefly: cell-based or functional assay.

B1: S2V29-v37.2 (antibody, V domains shown)
VH: EVQLVESGGSVVQPGRALRLSCAASGITFSSFGMYWVRQAPGKGLEWLGYIAYDGSDTYYADSVKGRFTISRDNSKNTLYLQMNSLRIEDTAVYYCAKDYYPLLSYYYGLDVWGQGTTVTVSS
VL: QSVLTQPRSVSGSPGQSVTISCTGTSSDVGAYNYVSWYQQHPGKAPKFMIYDVDQRPSGVPDRFSGSKSGNTASLIISGLQAEDEADYYCSSYAGSYIWVFGGGTQLTVL
For the molecule B1, the IC50, authentic virus neutralization was 1.3 to 9.6 ng/mL and the median IC50, authentic virus neutralization stood at 2 ng/mL.
